Laboratory results from US20150044195A1.

Molecular target: Native (wild-type) human factor VIIa (human) (UniProt P08709)
Test: cell-based or functional assay

Chain of UniProt P08709 (P08709 213-466, chain 2 of 2, other chains not shown): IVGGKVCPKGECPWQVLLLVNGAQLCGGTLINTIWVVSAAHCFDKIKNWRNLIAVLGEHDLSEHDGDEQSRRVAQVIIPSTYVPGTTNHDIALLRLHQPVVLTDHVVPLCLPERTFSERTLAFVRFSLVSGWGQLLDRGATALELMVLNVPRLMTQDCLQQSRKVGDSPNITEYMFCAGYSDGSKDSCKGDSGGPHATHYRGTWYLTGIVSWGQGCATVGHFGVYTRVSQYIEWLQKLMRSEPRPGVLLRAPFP

- Relative first-order rate constants (ratio) of ATIII inhibition (ratio to wt-Factor VIIa): 1
Substance: Antithrombin III (ATIII) (from UniProt P01008 33-464)
